Test results: patent US8673594B2, “Methods for stimulating nervous system regeneration and repair by regulating arginase I and polyamine synthesis” (Research Foundation of City University of New York, priority 2000, dated 2014)

B1: GDNF: glial cell line-derived neurotrophic factor (protein, UniProt P39905 78-211, looked up)
Glial cell line-derived …: SPDKQMAVLPRRERNRQAAAANPENSRGKGRRGQRGKNRGCVLTAIHLNVTDLGLGYETKEELIFRYCSGSCDAAETTYDKILKNLSRNRRLVSDKVGQACCRPIAFDDDLSFLDDNLVYHILRKHSAKRCGCI
B2: BDNF: Brain-derived neurotrophic factor, Trk-family neurotrophin (protein, UniProt P23560 19-247, looked up)
Neurotrophic factor BDNF …: APMKEANIRGQGGLAYPGVRTHGTLESVNGPKAGSRGLTSLADTFEHVIEELLDEDQKVRPNEENNKDADLYTSRVMLSSQVPLEPPLLFLLEEYKNYLDAANMSMRVRRHSDPARRGELSVCDSISEWVTAADKKTAVDMSGGTVTVLEKVPVSKGQLKQYFYETKCNPMGYTKEGCRGIDKRHWNSQCRTTQSYVRALTMDSKKRIGWRFIRIDTSCVCTLTIKRGR

What was measured:
[1] = system: Arg I RNA in cerebellar neurons; experiment: Arginase I RNA level in cerebellar neurons by RT-PCR and quantitative PCR; format: cell-based; conditions: overnight dbcAMP 1 mM or BDNF 200 ng/ml; P<0.005
Protocol: FIG. 4: Priming Neurons With Brain Derived Neurotrophic Factor (BDNF) or Dibutyryl (db) cAMP Up-Regulates Arginase I RNA Levels In Cerebellar Neurons. RNA isolated from cerebellar neurons without treatment (lane 2), from cerebellar neurons exposed overnight to either BDNF (200 ng/ml) (lane 3) or dbcAMP (1 mM) (lane 4), was reverse, transcribed and subjected to (A) semi-quantitative PCR; or (B) quantitative PM; using primers specific for arginase I. As a positive control, RNA isolated from liver tissue was subjected to RT PCR and quantitative PCR procedures using the same primers ((A), lane 1; (B), “Liver”)
To determine whether elevated cAMP levels causes an up-regulation of arginase expression, cerebellar neurons were primed with neurotrophins (BDNF) or dbcAMP (Example 1), and RNA and protein was extracted from primed neurons (Example 2). The extracted RNA was used as a template for reverse transcription and PCR amplification using primers specific for the gene encoding the enzyme arginase I (“Arg I”), an isoform of arginase abundant in liver tissue but barely detectable in other tissues.
Cerebellar neurons were primed with neurotrophins (BDNF, GDNF) or dbcAMP according to the procedures in Example 1. […]
Finally, ArgI amplified cDNA samples were detected by electrophoretic separation on a 1% agarose gel and staining with ethidium bromide.

[2] = system: ArgI protein in cerebellar neurons; experiment: Arginase I protein level in cerebellar neurons by SDS-PAGE and Western blot; format: cell-based; conditions: for increase in amount of ArgI protein: after 1 hour of exposure; for increase in amount of ArgI protein / time of peak of ArgI protein increase post-treatment / time for which ArgI protein increase was sustained: dbcAMP 1 mM or BDNF 200 ng/ml; for time for which ArgI protein increase was sustained: declining by 24 hours
Protocol: Cerebellar neurons were untreated (−) or exposed to either (A) 200 ng/ml BDNF or (B) 1 mM dbcAMP for 1 hour (h), 3 h, 21 h or 24 h; or (C) 200 ng/ml GDNF (+) for 1 h, 3 h or 5 h and the cells lysed in the presence of protease inhibitors. Total protein (23 μg) was subjected to SDS-polyacrylamide gel (12%) electrophoresis (SDS-PAGE), transferred to nitrocellulose membrane and immunostained with antibody to Arg I. The arrows indicate the position of ArgI polypeptide.
We next assessed the expression of ArgI in cerebellar neurons at the protein level. After exposure of cerebellar neurons to either dbcAMP or BDNF for various times, neurons were lysed, proteins were extracted and the extracted proteins were separated by SDS PAGE before being transferred to membrane and immunostained with a polyclonal antibody against arginase I (see Example 2).
Cerebellar neurons were untreated (−) or exposed to 200 ng/ml GDNF for 1 h, 3 h or 5 h and the cells lysed in the presence of protease inhibitors. Total protein (23 μg) was subjected to SDS-polyacrylamide gel (12%) electrophoresis (SDS-PAGE), transferred to nitrocellulose membrane and immunostained with antibody to Arg I. As shown in FIG. 5(C), the amount of ArgI polypeptide increased at least two-fold after treatment of neurons with GDNF.
Neurons were lysed, proteins were extracted and the extracted proteins (23 μg of total protein per lane) separated by SDS-polyacrylamide gel (12%) electrophoresis (SDS-PAGE) according to well-known procedures (see Ausubel et al., supra). Separated proteins were transferred to nitrocellulose membrane and immunostained with antibody to Arg I. The results are shown in FIG. 5, where the arrows indicate the position of ArgI polypeptide. Polyclonal antibodies were generated against the recombinant arginase of Cavalli at al., Biochemistry, 33, pp. 10652-657 (1994), which described the recombinant expression and purification of rat liver arginase I in E. coli. Polyclonal antibodies were generated essentially according to the procedures of Hanly et al., ILAR Journal, 37, pp. 141-152 (1995), incorporated herein by reference.
For the measurement of arginase I protein levels by immunoblot, cells were harvested and washed with ice cold PBS and then resuspended (100 μl/10^7 cells) in ice cold extraction buffer containing 50 mM Tris-HCl, pH 7.4, 150 mM NaCl, 2 mM EDTA, Triton-X 100, 1 mM phenylmethylsulfonyl fluoride (PMSF), 10 micrograms/ml leupeptin, 1 micromolar pepstatin, 1 mM N-ethylmaleimide (NEM), 2 mM Na3VO4, 20 mM sodium pyrophosphate, and 50 mM NaP). Lysates were centrifuged at 15,000 RPM at 4 degrees centigrade for 30 minutes. The clear cytosol was separated from the insoluble pellet fraction and immediately used for immunoblot. The supernatants were removed carefully and the protein concentration was quantified by the Bradford method. Lysates were mixed with boiling Laemmli's buffer (1× is 100 mM Tris-HCl, pH 6.8, 4% SDS, 200 mM dithiothreitol, 20% glycerol, 2% SDS, 0.2% bromophenol blue, 10 micrograms/ml aprotinin, 10 micrograms/ml leupeptin). The samples were boiled for 10 minutes at 100° C. and centrifuged at 15,000 rpm for 10 seconds. Approximately 30 micrograms of protein was electrophoresed under reducing conditions on 10% SDS-polyacrylamide gels and transferred to nitrocellulose membrane. Membranes were blocked in 5% skim milk in TBST (Tris, pH 7.4; 150 mM NaCl; 0.05% Tween 20) for 30 minutes at room temperature. Blots were probed with primary antibodies overnight at 4° C., followed by incubation with anti-rabbit or anti-mouse IgG conjugated with horseradish peroxidase (Bio-Rad, Hercules, Calif.) for 1 hour. Signals were detected using the ECL system (Amersham Corp, Arlington, Heights, Ill.).

Row | Molecule | increase in amount of Arg I RNA by quantitative PCR [1] | increase in amount of ArgI protein [2] | time of peak of ArgI protein increase post-treatment [2] | time for which ArgI protein increase was sustained [2] [h] | increase in amount of ArgI polypeptide ([2]; 200 ng/ml GDNF for 1 h, 3 h or 5 h)
1 | CCCC(=O)Nc1ncnc2c1ncn2[C@@H]1O[C@@H]2COP(=O)(O)O[C@H]2[C@H]1OC(=O)CCC [dbcAMP, dibutyryl cAMP] | about 50% | at least two-fold | around 3 hours | 21 | –
2 | B1 | – | – | – | – | at least two-fold
3 | B2 | about 50% | at least two-fold | around 3 hours | 21 | –
